Measurements taken from ChEMBL document CHEMBL2074163, “Identification of monocarboxylate transporter 8 as a specific thyroid hormone transporter” (J Biol Chem, 2003).

Tests used:
Assay type in all cases: functional, cell-based
Conditions in all cases: Oocyte
[1] = substrate: N[C@@H](Cc1cc(I)c(Oc2cc(I)c(O)c(I)c2)c(I)c1)C(=O)O; assay: (§1) TP_TRANSPORTER: uptake in Xenopus laevis oocytes
[2] = substrate: N[C@@H](Cc1ccc(Oc2cc(I)c(O)c(I)c2)c(I)c1)C(=O)O; assay: as §1
[3] = substrate: NC(Cc1ccc(Oc2cc(I)c(O)c(I)c2)c(I)c1)C(=O)O; assay: as §1

B1: Monocarboxylate transporter 8 (Rattus norvegicus), Q8K1P8 (protein)
chain: MALPSPASEEAEGPCQEANQEYQEPVCSPVPEPEPEPEPEPEPEPEPVPVPPPEPQPEPEPQPLPDPAPLPVLGFEAEPVQEPEPTPTVETRGTARGFQPPEGGFGWIVVFAATWCNGSIFGIHNSVGILYSMLLEEEKEKNRQVEFQAAWVGALAMGMIFFCSPIVSIFTDRLGCRITATTGAAVAFIGLHTSSFTSSLSLRYFTYGILFGCGCSFAFQPSLVILGHYFQRRLGLANGVVSAGSSIFSMSFPFLIKMLGDRIKLAQTFQVLSTFMFVLTLLSLTYRPLLPSSQDTPSKRGAHTLRQRFLVQFRKYFNMRVFRQRTYRIWAFGIAAAALGYFVPYVHLMKYVEDKFKEIKETWVLLVCIGATSGLGRLVSGHISDSIPGLKKIYLQVLSFLLLGLMSMMIPLCRDFGGLIVVCLFLGLCDGFFITIMAPIAFELVGPMQASQAIGYLLGMMALPMIAGPPIAGLLRNCFGNYHVAFYFAGVPPIIGAVILFFVPLMHQRMFKKEQRESSKDKMLSHDPDPNGELLPGSPTPEEPI
- Km [1]: 4.7 µM
- Km [2]: 4 µM
- Km [3]: 2.2 µM
